The subject of the data set is NCCCNCCCCNCCCN
Put plainly: colorimetric DTNB SSAT assay. In kind it is biochemical, Homo sapiens. Conditions: 0.25 mM AcCoA, pH 7.5, 37 °C.

One may read the Km as the substrate concentration at which the rate is half of its maximum.

With SAT1 (Homo sapiens), the Km came out at 73.10 ± 8.328 µM.

The record behind these values is publication doi:10.1101/2024.10.18.618978v3.
